In patent US20090304580A1 (published 2009):
Positions of bridges follow the written chain, without caps; N, C: chain ends. No end group written: not given here.

Columns and labels:
[1] = molecular target: T1, PAM4 antigen (human pancreatic cancer mucin, CaPan1) (human); test: ELISA on target mucin antigen (FIG. 9)
T1 construct: Mucin preparation or cell extract from human pancreatic cancer (CaPan1 xenografts); coated on plates or captured by PAM4 in the immunoassays; also called CaPan1 Ag; CaPan1 antigens

[2] = molecular target: T2, cyclic phage-displayed peptide ACPEWWGTTC (disulfide 2-10); test: screen of phage-displayed peptides (cyclic library) after panning against hPAM4
T2 construct: also called cyclic peptide
T2 peptide: ACPEWWGTTC

EC50 [1]: 1.31 nM
binding result [2]: binds
B1: humanized PAM4 antibody (hPAM4 IgG) (antibody, V domains shown)
VH: QVQLQQSGAEVKKPGASVKVSCEASGYTFPSYVLHWVKQAPGQGLEWIGYINPYNDGTQYNEKFKGKATLTRDTSINTAYMELSRLRSDDTAVYYCARGFGGSYGFAYWGQGTLVTVSS
VL: DIQLTQSPSSLSASVGDRVTMTCSASSSVSSSYLYWYQQKPGKAPKLWIYSTSNLASGVPARFSGSGSGTDFTLTISSLQPEDSASYFCHQWNRYPYTFGGGTRLEIKR
